Experimental findings from US20240400717A1 (NATIONAL CHENG KUNG UNIVERSITY, published 2024) are described below.

The target in experiment [1] is T1, mouse rCHI3L1 (mouse, UniProt Q61362 30-389, limits assumed).
T1 construct: also called mouse CHI3L1; murine CHI3L1
The experiment in a line: phage ELISA (3rd round single clone screening): coated protein, rescued phage supernatant, anti-M13-HRP, OD450. For orientation: In an ELISA, binding on a coated surface is turned into a signal by an enzyme label.

The target in experiment [2] is T2, recombinant human CHI3L1 (human, UniProt P36222 22-383).
T2 construct: also called rCHI3L1; human rCHI3L1
T2 sequence (P36222 22-383 limits assumed): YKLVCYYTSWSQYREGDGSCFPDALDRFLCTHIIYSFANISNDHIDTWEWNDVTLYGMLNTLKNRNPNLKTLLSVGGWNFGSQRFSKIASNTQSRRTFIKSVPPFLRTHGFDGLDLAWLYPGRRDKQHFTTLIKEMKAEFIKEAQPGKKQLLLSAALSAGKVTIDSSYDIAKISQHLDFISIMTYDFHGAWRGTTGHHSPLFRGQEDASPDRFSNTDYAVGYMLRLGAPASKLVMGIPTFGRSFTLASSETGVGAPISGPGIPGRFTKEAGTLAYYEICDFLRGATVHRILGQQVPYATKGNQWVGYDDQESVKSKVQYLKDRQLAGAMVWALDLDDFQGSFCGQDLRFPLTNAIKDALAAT
The description is as above.

T1 sequence (Q61362 30-389 limits assumed): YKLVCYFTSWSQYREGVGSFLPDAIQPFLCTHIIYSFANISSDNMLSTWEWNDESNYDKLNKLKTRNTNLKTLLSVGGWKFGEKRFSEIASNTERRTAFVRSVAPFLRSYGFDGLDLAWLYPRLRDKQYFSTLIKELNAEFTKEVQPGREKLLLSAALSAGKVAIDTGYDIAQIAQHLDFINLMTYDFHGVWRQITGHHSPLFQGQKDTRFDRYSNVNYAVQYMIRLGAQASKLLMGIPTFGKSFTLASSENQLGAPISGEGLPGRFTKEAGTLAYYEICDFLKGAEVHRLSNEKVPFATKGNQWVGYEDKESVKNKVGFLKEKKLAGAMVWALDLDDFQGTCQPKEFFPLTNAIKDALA

B1: anti-CHI3L1 clone 293R3-5 (antibody, human IgG1, V domains shown)
VH: EVQLVQSGAGVKKPGATVKISCKVSGYTFTDYYMHWVQQAPGKGLEWMGLVDPEDGETIYAEKFQGRVTITADTSTDTAYMELSSLRSEDTAVYYCATASPREEMPYYFDYWGQGTLVTVSS
VL: SYELTQPPSVSVSPGQTASITCSGDILADQYASWYQQKPGQSPVLVIYHDTKRPSGVPERFSGSTSGNTATLTISGTQAMDEAAYYCQAWDINTAWVFGGGTQLTVLG
notes: also called #hu 293R3-5
In the case of B1, the results for the binding result in experiment [1] and in experiment [2] were “no binding” and “binds”, respectively.
